Tests used:
[1] = target: SB(L8A)-SNAC, peptide in which D-Leu at the C-terminus of SB-SNAC is substituted with D-Ala
[2] = target: SB(L8F)-SNAC, peptide in which D-Leu at the C-terminus of SB-SNAC is substituted with D-Phe
[3] = target: substrate peptide 3 (SB-SNAC), SNAC body indicated with 3 in FIG. 2a
[4] = target: longer peptide (11 amino acid residues, SNAC body)
[5] = target: methyl ester of the compound indicated with 3 in FIG. 2a
[6] = target: shorter peptide (7 amino acid residues, SNAC body)
[7] = target: substrate in which Ile at the N-terminus of the compound indicated in 3 of FIG. 2a is substituted with L-Trp
[8] = target: substrate peptide (SNAC body) shown in FIG. 4

| Protein | peptide cyclization reaction, HPLC [1] | peptide cyclization reaction, HPLC [2] | peptide cyclization reaction, HPLC [3] | kcat/KM of the cyclization reaction relative to substrate 3 of FIG. 2a [2] | peptide cyclization reaction (data not shown) [4] | peptide cyclization reaction [5] | peptide cyclization reaction (data not shown) [6] | kcat/KM of the cyclization reaction relative to substrate 3 of FIG. 2a [7] | peptide cyclization reaction, HPLC and mass spectrometry (extracted ion chromatogram) [8] | peptide cyclization reaction, HPLC analysis of the product [3] |
| --- | --- | --- | --- | --- | --- | --- | --- | --- | --- | --- |
| peptide cyclization enzyme from Streptomyces noursei NBRC 15452 (protein) VHGDSADPAGYGAGDGSPLDLDLDRLARDCDVAGGQLAVHHHGVLETWEFGEEEPGAGRPVHSATAFPYGSTTKVCTATSVLQLVGDGDLDLDRPVREWLPEAGTVPEARRDHPALAATLRQLLSHTAGLPSDHDDADASSLRRWLTGFLAAPADARPAPGTFSYSNVGYGIAGRVVESVTGLPWYEAVRDYLLRPLGTAITALPAEPGSLPAGGLAGSAADLVRLGLLHIAEPGRPDLADPAALGEATRPTAGADPFGLADGWGPGLGHFGPAEDRWLGHDGTLDGATCHLRIHPRRGTVIALTTNSPTGQALWDAVVGALRDAGIDVGVYRPAPPPSLAQGGAPAGAAAFADCTGTYRNGDLAVTVGLDGPHLVLELPGGARELAEPLARRTFAARGAGAFLGRFAVDARTGAVHALQYSGRTLLRDTGRAHGARPH | the two enzymes produced cyclized peptides from three substrates | the two enzymes produced cyclized peptides from three substrates | the two enzymes produced cyclized peptides from three substrates | – | – | – | – | – | – | – |
| recombinant SurE protein (peptide cyclization enzyme derived from Streptomyces albidoflavus NBRC 12854) (protein) VGAEGAERDAVGALFEELVREHRVTGAQLSVYRDGALSEYATGLASVRTGEPVTPRTGFPFGSVTKFLTAELVMQFVCDGDLDLDDPLAGLLPDLGRAAGPPLGTATVRQLLSHTAGVVDSIEYDEMRGPSYRRFAAACARQPALFPPGLAFSYSNTGYCLLGAVIEAASGMDWWTAMDSCLLRPLGIEPAFLHDPRPGQGGAARPVAEGHALRAGGERAEHVDHMASLSLAAAGGLVGSATDLVTAARPHLADRKTFAQHDLLPEDAVLAMRTCVPDAEPFGLADGWGLGLMRHGTGDGAWYGHDGAVGGASCNLRIHPDRSLALALTANSTAGPKLWEALVARLPEAGLDVGHYALPVPDSAPLAPDAGHLGTYANGDLELMVTHDAAGDLFLTRESYSDYRLSLHEDDLFVARSGEPGALPITGRFVREHPAGPVALLQYGGRAMHRL | – | – | – | two to five times higher than the kcat/KM value obtained when the compound indicated with 3 in FIG. 2a was used as a substrate | a cyclized product was observed to be obtained by the recombinant SurE | even when the methyl ester was used as a substrate, the same cyclized product as in the case of using the SNAC body was produced | a cyclized product was observed to be obtained by the recombinant SurE | two to five times higher than the kcat/KM value obtained when the compound indicated with 3 in FIG. 2a was used as a substrate | a product having a molecular weight corresponding to the molecular weight (m/z 1038.8) of a cyclized product of Surugamide F (cyclic Surugamide F) was detected | cyclized the substrate peptide to give a cyclized peptide 1 (Surugamide B) as a single product |
| peptide cyclization enzyme from Goodfellowiella coeruleoviolacea NBRC 14988 (protein) VPNEQDLGSLLARLAERHRVPGAQLSVCHDSASVTVVTGRERHGAATPVTARSAFPLGSLTKPFTAALAMVLVADGDLDLDEPVAGYHPGVTLRRLLSHTAGLESNVDEQAAAGVPRRRWVTRYPARLAPEHPPGTVFSYSNVGYLLAGHLVEEVTGLDWAEAVESVLLRPLGITPAFVVGAAGSRGVVCGHVLTDDRVLPVAEQVMPEVEAPNGALALSSADLLAFAALFSANSPAPDVLDPATAALMCQDQLADVRVGPYGMADGWGLGWARYRGAGADWFGHDGTGDGTSCHLRFDPERGTAVALTTNGSTGAALWRELCAELAERHVLPPEWGREPGEATPVAGPPDGAGHYANGPAEFVVTRQDDDGLALVLDGAQAVPLTCLPDLRFQLRLGTTVLSGRFLRDPDTGGIDHIQVTGRLARRRQVTG | the two enzymes produced cyclized peptides from three substrates | the two enzymes produced cyclized peptides from three substrates | the two enzymes produced cyclized peptides from three substrates | – | – | – | – | – | – | – |

— US20210139917
